Measurements: patent US20210253725A1 (BIONTECH, published 2021)

T1: CD134 expressed on the cell surface of HT1080_OX40 cells (human, UniProt P43489 29-277)
T1 sequence (looked up): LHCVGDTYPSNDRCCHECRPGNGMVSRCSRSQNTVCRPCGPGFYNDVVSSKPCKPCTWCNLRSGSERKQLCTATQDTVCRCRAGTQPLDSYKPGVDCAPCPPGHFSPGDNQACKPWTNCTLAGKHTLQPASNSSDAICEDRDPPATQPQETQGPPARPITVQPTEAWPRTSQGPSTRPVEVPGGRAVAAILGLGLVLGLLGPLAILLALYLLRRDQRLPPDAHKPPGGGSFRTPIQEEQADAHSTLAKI

T2: CD134 protein (His-tagged, Sino Biological Inc. 10481-H08H) (human, UniProt P43489 29-216)
T2 construct: bought protein coated on ELISA plates; also called OX40; TNFRSF4; not shown: His tag
T2 sequence (looked up): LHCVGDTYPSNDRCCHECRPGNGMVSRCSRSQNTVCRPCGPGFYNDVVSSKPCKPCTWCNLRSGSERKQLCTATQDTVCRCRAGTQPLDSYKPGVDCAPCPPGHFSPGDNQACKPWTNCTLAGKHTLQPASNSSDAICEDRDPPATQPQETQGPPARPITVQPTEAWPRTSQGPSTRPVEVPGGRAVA

B1: P018.S.05.A.F05 (as anti-CD134 antibody) (antibody, V domains shown)
VH: QSVEESGGRLVTPGTPLTLTCTVSGFSLSNYYMTWVRQAPGKGLEYIGIIGSGVSTYYANWAKGRFTISKASSTTVDLKMTSPTTEDTATYFCARDMYVGNWGDWGLWGQGTLVTVSS
VL: AYDMTQTPASVEVAVGGTVTIKCQASQSISNNLNWYQQKPGQPPKLLIYSVSTLASGVPSRFKGSGSGTDYTLTISGVESVDAATYYCQQDYRIGDLDSAFGGGTEVVVK
notes: V regions on human Ig constant parts; also called AB134_16
B2: P018.S.02.A.H03 (antibody, V domains shown)
VH: QSLEESGGRLVTPGGSLTLTCTVSGIDLSSYGMGWVRQAPGKGLEWIGTISYGGSTFYANWVKGRFTISKTSTTVDLKVTSLTTEDAATYFCAREVPYWSLWGQGTLVTVSS
VL: AYDMTQTPASVAAAVGGTVTIKCQASQSIGSDLSWYQQKRGQPPKLLIYDASTLASGVPSRFKGSGSGTEFTLTISDVQSADAATVYCQQDYSYRNVDNTFGGGTEVVVK
notes: V regions on human Ig constant parts; also called AB134_3
B3: P018.S.11.A.D03 (antibody, V domains shown)
VH: QEQLKETGGGLVQPGGSLTLSCKASGFDFSSGYMSWVRQAPGKGLEWIGYIDPVFGSTYYASWVNGRFAISSHNAQNTLYLQLNSLTAADTATYFCARDLRAFYSGWGGINLWGPGTLVTVSS
VL: AAVLTQTPSPVSAAVGGTVTIKCQSSQIVVNNNFLSWYQQKPGQPPKLLIYDASNLASGVPDRFSGSGSGTQFTLTISGVQSDDAATYYCLGGYDDDAENAFGGGTEVVVQ
notes: V regions on human Ig constant parts; also called AB134_30
B4: P018.S.12.A.B05 (antibody, V domains shown)
VH: QQQLVESGGGLVKPGASLTLTCKASGFFFSGSYYMCWVRQAPGKGLEWIACIYTGSDDDTNYASWAKGRFTISKTSSTTVTLQMTSLTAADTATYFCARRNYDTDWGGDLWGPGTLVTVSS
VL: AVVLTQTPASVEAAVGGTVTIKCQASQSIGSSLAWYQQKPGQRPKLLIYYASNLASGVSSRFKGSGSGTQFTLTISDLESADAATYYCQCTYTSSDYLDAFGGGTEVVVK
notes: V regions on human Ig constant parts; also called AB134_59
B5: P018.S.12.A.C01 (antibody, V domains shown)
VH: QEQLKESGGGLVTPGGTLTLTCTASGFTFSSHAMGWVRQAPGKGLEWIGKIYDDGTTFYANWAKGRFTISRTSTTVDLKMTSLTTEDTATYFCLRGYNSGFNFWGQGTLVTVSS
VL: AQVLTQTPASVSAAVGGTVTISCQSSESVYNNNFLAWYQQKPGQPPKLLIYLASTLASGVPSRFSGSGSGTEFTLTISDLDSDDAATYYCAGGYDDNVYGFGGGTEVVVK
notes: V regions on human Ig constant parts; also called AB134_61
B6: P018.S.11.A.G03 (antibody, V domains shown)
VH: QSLEESGGRLVTPGTPLTLTCTASGFSLTNYAMNWVRQAPGKGLEWIGFINYDGNTYYANWAKGRFTISRTSTTVDLKITSPTTEDTATYFCARGGDGYTHIPDTFDPWGPGTLVTVSS
VL: AFEMTQTPSSVSVAVGGTVTIKCQASQSIYSYLSWYQQKPGQPPKLLIYYASTLASGVPSRFVGSGSGTQFTLTISGVESADAATYYCQQGYSYSNIDNVFGGGTEMVVK
notes: V regions on human Ig constant parts; also called AB134_43
B7: P018.S.12.A.D05 (antibody, V domains shown)
VH: QEQLKESGGGVVTPGGTLTLTCTASAFSLNHYNIQWVRQAPGKGLEWIGWILTDGTEYYANWAKGRFTISKTSTTVDLKIASPTTEDTATYFCAREGDWGVDSLWGPGTLVTVSS
VL: ALVMTQTPSPVSAAVGGTVTISCQSSQSVDNNDFLSWYQQKPGQPPKLLIYLASKLASGVPSRFSGSGSGTQFTLTISGVQSDDAATYYCKGLYFDSGWYAAFGGGTEVVVE
notes: V regions on human Ig constant parts; also called AB134_70
B8: P018.S.12.A.F03 (antibody, V domains shown)
VH: QSLEESGGRLVAPGTPLTLTCTVSGIDLSRYAMGWVRQAPGKGLEYIGIIDDNDITYFATWAKGRFTISKTSTTLGLKITSPTTEDTATYFCARTADYADYSFGLWGPGTLVTVSS
VL: DVVMTQTPTSVSEPVGGTVTIKCQASENIGNYLAWYQQRPGQRPKLLIYAASNLASGVPSRFKGSGSGTEYALTISDLESDDAATYYCQCTYDDSEYFVFGGGTEVVVK
notes: V regions on human Ig constant parts; also called AB134_79
B9: P018.S.14.A.G03 (antibody, V domains shown)
VH: QSLEESGGRLVTPGTPLTLTCTVSGIDLSSYHMCWVRQAPGKGLEYIGYIAYGGNTYYANWAKGRFTISKTSTTVDLRITSPTTEDTATYFCARGYSEDSYWGLWGPGTLVTVSS
VL: AYDMTQTPASVEAAVGGTVTIKCQASQNIENYLAWYQQKPGQPPKLLIYDTSKLTSGVPSRFSGSGSGTDFTLTISGVQSDDAATYYCQQDYGIIFVDNIFGGGTEVVVK
B10: P018.S.08.A.E03 (antibody, V domains shown)
VH: QSVEESGGRLVTPGTPLTLTCTVSGFSLTYYAVTWVRQPPGKGLEWIGVIYDNGATAFATWAKGRFTMSKNSTTVALKVTSPTTEDTATYFCARSANNAWSTYSNLWGQGTLVTVSS
VL: DIVMTQTPSSVSAAVGGTVTINCQASEDISSYLSWYQQKLGQPPKLLIYKASTLESGVPSRFKGSGSGTEYTLTISDLESDDAATYYCQSYYSGSISGYGFVFGGGTGVVVK
B11: P018.S.13.A.C02 (antibody, V domains shown)
VH: QSVEESGGRLVTPGTPLTLTCTVSGFSLSSYAMSWVRQAPGKGLEWIGIISTSGITYYASWAKGRFTISKTSTMVDLKITSPTTEDTATYFCARLNGFDDYVRYFDFWGLGTLVTVSS
VL: AIELTQTPSSVSAAVGGTVTINCQASESIASNLAWYQQKPGQPPKLLIYAASYLASGVPSRFKGSGSGTEYTLTISGVQSADAATYYCQSAFYVSSSDNAFGGGTEVVVK
B12: P018.S.08.A.F03 (antibody, V domains shown)
VH: QSVEESGGRLVTPGTPLTLTCTASGFTISSYHMIWVRQAPGEGLEWIGDIYGGTATTDYASWAKGRFTISKTSTTVDLKMTSLTTEDTATYFCARARYSGGSYANYVFNLWGQGTLVTVSS
VL: DIVMTQTPASVEAAVGGTVTIKCQASQSISSYLAWYQQKPGQPPKLLIYRTSTLESGVPSRFKGSGSGTEFTLTISDLESADAATYYCQGYDWSSSNRYDNTFGGGTEVVVK
B13: P018.S.13.A.G03 (antibody, V domains shown)
VH: QSLEESGGRLVTPGTPLTLTCTASGFSLSSYDVSWVRQAPGKGLEYIGFIGSDGSAHYATWVKGRFTISKTSTTVDLKITSPTTEDTATYFCARDWNDYWAHDLWGPGTLVTVSS
VL: AQVLTQTTSPVSAAVGGTVTINCQASQIVTSKSALSWYQQKPGQPPRLLIYKASTLASGVPSRFSGSGSGTQFTLTISDLESDDAATYYCAGGYYNSGDLNPFGGGTEVVVK
B14: P018.S.08.A.A04 (antibody, V domains shown)
VH: QSVEESGGRLVTPGTPLTLTCTVSGFSLSSYAVSWVRQAPGKGLEWIGVIWNNGATHYATWAKGRFTISKASTTVDLKVTSPTTEDTATYFCARSANDAWSTYSDLWGQGTLVTVSS
VL: DIVMTQTPASVEAAVGGTVTIKCQASQTITNYLSWYQQKPGQPPKLLIYKASTLTSGVSSRFKGSGSGTEFTLTISDLESDDAATYYCQNYYYGSSSGYGFVFGGGTEVVVK
B15: P018.S.13.A.A05 (antibody, V domains shown)
VH: QSLEESGGRLVTPGTPLTLTCTASGFSLSRYDMSWVRQAPGKGLEYIGVISSSGGTNYANWAKGRFTISKTSTTVDLKITSPTTEDTATYFCAREGDYWDFNLWGPGTLVTVSS
VL: AQVLTQTPSSVSAAVGGTVTINCQASQSISNLLAWYQQKPGQPPKLLIYGASTLASGVPSRFSGSGSGTEFTLTISDLESDDAATYYCAGGFPGLDTVAAFGGGTEAVVT

Biological target: T1, CD134 expressed on the cell surface of …
Test: cell-based or functional assay
Throughout, for Functional assay Cross-linked by F(ab′)2 fragment IL-8: test concentration or dose not given here.
Throughout, for Functional assay IL-8: test concentration or dose not given here.

Binder	Functional assay Cross-linked by F(ab′)2 fragment IL-8	Functional assay IL-8
B1	1.71 abs. corr.	0.187 abs. corr.
B2	1.95 abs. corr.	2.56 abs. corr.
B3	1.86 abs. corr.	2.24 abs. corr.
B4	2.15 abs. corr.	0.96 abs. corr.
B5	2.06 abs. corr.	-0.026 abs. corr.
B6	2.1 abs. corr.	1.57 abs. corr.
B7	2.15 abs. corr.	-0.007 abs. corr.
B8	2.15 abs. corr.	0.527 abs. corr.

Biological target: T1, CD134 expressed on the cell surface of …
Test: cell-based or functional assay
Remark: another data set of the same source

Binder	EC 50 (IL-8 release, cross-linked)
B1	7.12 µg/mL
B2	0.215 µg/mL
B3	0.176 µg/mL
B4	0.102 µg/mL
B5	0.431 µg/mL
B6	0.894 µg/mL
B7	2.4 µg/mL
B8	1.63 µg/mL

Biological target: human 4-1BB (CD137) (human, UniProt Q07011 24-255)
Sequence (Q07011 24-255): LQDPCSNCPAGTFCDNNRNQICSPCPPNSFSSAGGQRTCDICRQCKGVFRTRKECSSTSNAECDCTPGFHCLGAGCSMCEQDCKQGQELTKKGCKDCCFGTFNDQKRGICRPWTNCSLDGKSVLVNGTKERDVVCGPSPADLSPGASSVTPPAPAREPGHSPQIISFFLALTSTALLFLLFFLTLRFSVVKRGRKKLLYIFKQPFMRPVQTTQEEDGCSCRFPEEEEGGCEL
Test: cell-based or functional assay

Binder	EC 50 [ng/mL] of agonistic function (IL-8 release from CD137-overexpressing HT1080 cells, antibody cross-linked by F(ab')2 goat anti-human IgG)
B9	3500 ng/mL
B10	4960 ng/mL
B11	3500 ng/mL
B12	2710 ng/mL
B13	4780 ng/mL
B14	5150 ng/mL
B15	3720 ng/mL

Biological target: T1, CD134 expressed on the cell surface of …
Test: HT1080_OX40 cells, imaging; note: test concentration or dose not given here

Binder	Cellular binding assay [RFU]
B1	392 RFU
B2	198 RFU
B3	482 RFU
B4	536 RFU
B5	496 RFU
B6	450 RFU
B7	451 RFU
B8	485 RFU

Biological target: T2, CD134 protein (His-tagged, Sino …)
Test: ELISA, coated His-tagged CD134; note: test concentration or dose not given here

Binder	ELISA [abs. corr.]
B1	2.41 abs. corr.
B2	0.468 abs. corr.
B3	1.99 abs. corr.
B4	2.1 abs. corr.
B5	2.49 abs. corr.
B6	2.11 abs. corr.
B7	2.13 abs. corr.
B8	2.45 abs. corr.
